Data on 4 molecules can be found in patent publication US10876098B2, “Polynucleotide, host cell and a method to recombinantly produce the protein encoded by said polynucleotide having peroxygenative activity” (CONSEJO SUPERIOR DE INVESTIGACIONES CIENTIFICAS (CSIC), priority 2015, dated 2020).

Substrate in data set [1]: OO
The data set is described as follows: purified protein, by the assay type. The following applies: other: H2O2, benzyl alcohol as substrate at saturation, pH 7.0.

Substrate in data set [2]: CCn1c(=NN=c2sc3cc(S(=O)(=O)O)ccc3n2CC)sc2cc(S(=O)(=O)O)ccc21
The data set is described as follows: purified protein, by the assay type. The following applies: other: 100 mM sodium phosphate/citrate pH 4.0, 2 mM H2O2 (ABTS); pH 4.0.

Substrate in data set [3]: CC(C)NCC(O)COc1cccc2ccccc12
The data set is described as follows: purified protein, by the assay type.

A short description of data set [4]: Optimum pH for naphthalene. Format: biochemical.
Data set [5] is described as follows: Optimum pH for ABTS. It counts as biochemical.
Data set [6] can be described thus: Optimum pH for DMP. Format: biochemical.
A short description of data set [7]: Naphthalene transformation reaction analysed by HPLC-PDA. It counts as biochemical. As to the method: A) Products formed after 15 minutes of reaction stopped with 20 μL of HCl 37% (PaDa-I, black bars; JaWa, grey bars). […] C) and D) Monitoring of the reaction for 270 minutes (without adding HCl) for the PaDa-I (C) and JaWa (D) mutants.
The reactions were analysed by means of chromatography in reverse phase (HPLC). The equipment is composed by a tertiary pump (Varian-Agilent Technologies, USA) coupled to an autosampler (Merck Millipore, MA, USA); an ACE C18 PFP column was used for separation (pentafluorophenyl, 15 cm×4.6 cm) at 45° C. and detection was performed using a photodiode detector (PDA) (Varian-Agilent Technologies, USA). The mobile phase selected was 70% methanol and 30% ddH2O (in both cases with 0.1% of acetic acid) at a flow rate of 0.8 mL/min. The reaction was quantified at 268 nm (based on standard HPLCs). […] For long reaction times, the conditions used were those described earlier but without stopping the reaction with HCl. A sample of 10 μL was injected and analysed at different reaction times (from 1 to 270 minutes).

Data set [8] in a line: Isoelectric point by two-dimensional electrophoresis. Format: physicochemical. As to the method: The analyses were performed using an Autoflex III MALDI-TOF-TOF unit with smartbeam laser (Bruker Daltonics). The samples were evaluated in positive mode. The method was calibrated using BSA with standard, thereby covering a range of 15,000 to 70,000 Da. In order to determine the isoelectric point of the UPO variants, 8 μg of pure enzyme were subjected to two-dimensional electrophoresis. These experiments were carried out at the Proteomic and Genomic Service of the Biological Research Centre (CIB-CSIC, Spain).

The nature of data set [9]: Thermostability assay (T50), culture supernatants, residual activity with ABTS. Format: physicochemical. The following applies: culture supernatants; temperature at which the enzyme retains 50% of its activity after 10 minutes of incubation. As to the method:
An individual S. cerevisiae colony was selected with the corresponding clone (grown in a SC drop-out minimal medium plate: 100 mL of 6.7% yeast nitrogen base, 100 mL of 19.2 g/L uracil-free amino acid supplement, 100 mL of 20% glucose, 1 mL of 25 g/L chloramphenicol and ddH2O up to 1,000 mL) was inoculated in 2 mL of selective minimal medium (as in the SC plate medium, but with 20 g of bacto agar and rafinose instead of galactose) and was incubated for 48 hour at 30° C. and 220 RPM. An aliquot of this culture was taken such that, upon inoculating it in 5 mL of new minimal medium, optical density at 600 nm would have a value of 0.25 (optical density, OD600=0.25). This starter was incubated until completing two full growth cycles (between 6 and 8 hours), at which time 1 mL of cells were taken to inoculate 9 mL of expression medium in a 100 mL flask (OD600=0.1). This culture of each clone was incubated for 72 hours at 25° C. and 220 RPM (at peak UPO activity; OD600=25-30), the cells were separated by centrifugation (10 minutes at 4,500 RPM and 4° C.) and supernatant was filtered (using a glass and nitrocellulose filter with a pore size of 0.45 μm). Appropriate dilutions of the supernatants were prepared so that aliquots of 20 μL would give rise to a linear response in kinetic mode. 50 μL of supernatant were used for each point in a temperature gradient created by means of thermocyclator, from 30 to 80° C. After incubating for 10 minutes, the aliquots were cooled in ice for 10 minute and tempered at room temperature for 5 minutes. […] The thermostability values were calculated in accordance with the ratio between the residual activities incubated at different temperatures and the value of initial activity at room temperature. The value of T50 was determined as the value of the temperature at which the protein loses 50% of it initial activity after incubating for 10 minutes.
An individual S. cerevisiae colony was selected with the corresponding clone (grown on a SC drop-out minimal medium plate: 100 mL of 6.7% yeast nitrogen base, 100 mL of 19.2 g/L uracil-free amino acid supplement, 100 mL of 20% glucose, 1 mL of 25 g/L chloramphenicol and ddH2O up to 1,000 mL), was inoculated in 3 mL of selective minimal medium (like the SC plate medium, but with 20 g of bacto agar and rafinose instead of galactose) and incubated for 48 hours at 30° C. and 220 RPM. […] The thermostability values were calculated in accordance with the ratio between the residual activities incubated at different temperatures and the value of initial activity at room temperature. The value of T50 was determined as as the temperature value at which the protein loses 50% of its initial activity after incubating for […].

The mark [10] stands for this setting: other: 100 mM potassium phosphate pH 7.0, 2 mM H2O2 (propranolol).
Setting [11] is: other: 100 mM potassium phosphate pH 7.0, 2 mM H2O2 (DMP, propranolol).
The mark [12] stands for this setting: 15 minutes of reaction stopped with HCl, 6.6 nM enzyme, 1 mM naphthalene, 1 mM H2O2.

B1: Agrocybe aegerita unspecific peroxygenase AaeUPO1 (UPO, EC 1.11.2.1), wild type, SEQ ID NO: 2 (SEQ ID NO: 4 with wild-type signal peptide) (Cyclocybe aegerita) (protein)
chain: EPGLPPGPLENSSAKLVNDEAHPWKPLRPGDIRGPCPGLNTLASHGYLPRNGVATPVQIINAVQEGLNFDNQAAVFATYAAHLVDGNLITDLLSIGRKTRLTGPDPPPPASVGGLNEHGTFEGDASMTRGDAFFGNNHDFNETLFEQLVDYSNRFGGGKYNLTVAGELRFKRIQDSIATNPNFSFVDFRFFTAYGETTFPANLFVDGRRDDGQLDMDAARSFFQFSRMPDDFFRAPSPRSGTGVEVVIQAHPMQPGRNVGKINSYTVDPTSSDFSTPCLMYEKFVNITVKSLYPNPTVQLRKALNTNLDFFFQGVAAGCTQVFPYGRD
B1: the figures for the Km in [1], in data set [2] and in data set [3] (setting [10]) were 1,370 ± 162 μM, 25-0 ± 2.5 μM and 2,239 ± 333 μM, respectively. For the same molecule, the kcat turned out to be 290 s⁻¹ in [1], 221 s⁻¹ in [2] and 150 ± 12 s⁻¹ in [3] (setting [10]). In addition, the kcat/Km in data set [1] is 210000 M⁻¹ s⁻¹; in [2], 8.8e+06 M⁻¹ s⁻¹; in data set [3] (setting [10]) it was 67000 ± 4800 M⁻¹ s⁻¹.

B2: Agrocybe aegerita peroxygenase AaeUPO1 variant JaWa (PaDa-I + G241D, R257K: V57A, L67F, V75I, G241D, I248V, R257K, F311L), SEQ ID NO: 24 (Cyclocybe aegerita; … (protein)
chain: EPGLPPGPLENSSAKLVNDEAHPWKPLRPGDIRGPCPGLNTLASHGYLPRNGVATPAQIINAVQEGFNFDNQAAIFATYAAHLVDGNLITDLLSIGRKTRLTGPDPPPPASVGGLNEHGTFEGDASMTRGDAFFGNNHDFNETLFEQLVDYSNRFGGGKYNLTVAGELRFKRIQDSIATNPNFSFVDFRFFTAYGETTFPANLFVDGRRDDGQLDMDAARSFFQFSRMPDDFFRAPSPRSDTGVEVVVQAHPMQPGKNVGKINSYTVDPTSSDFSTPCLMYEKFVNITVKSLYPNPTVQLRKALNTNLDFLFQGVAAGCTQVFPYGRD
As for B2, in [3] (setting [11]), the Km came out at 244 ± 92 µM, the kcat was 765 ± 76 s⁻¹ and the kcat/Km was 3.1e+06 ± 90000 M⁻¹ s⁻¹.

B3: Agrocybe aegerita peroxygenase AaeUPO1 variant SoLo (JaWa + F191S: V57A, L67F, V75I, F191S, G241D, I248V, R257K, F311L), SEQ ID NO: 42 (Cyclocybe aegerita; … (protein)
chain: EPGLPPGPLENSSAKLVNDEAHPWKPLRPGDIRGPCPGLNTLASHGYLPRNGVATPAQIINAVQEGFNFDNQAAIFATYAAHLVDGNLITDLLSIGRKTRLTGPDPPPPASVGGLNEHGTFEGDASMTRGDAFFGNNHDFNETLFEQLVDYSNRFGGGKYNLTVAGELRFKRIQDSIATNPNFSFVDFRFSTAYGETTFPANLFVDGRRDDGQLDMDAARSFFQFSRMPDDFFRAPSPRSDTGVEVVVQAHPMQPGKNVGKINSYTVDPTSSDFSTPCLMYEKFVNITVKSLYPNPTVQLRKALNTNLDFLFQGVAAGCTQVFPYGRD
Consider B3, for which, in data set [1], the Km is 1,430 ± 153 μM, the kcat is 446 s⁻¹ and the kcat/Km turned out to be 310000 ± 18000 M⁻¹ s⁻¹. In data set [3] (setting [10]), the Km was 391 ± 97 µM, the kcat is 497 ± 35 s⁻¹ and the kcat/Km turned out to be 1.3e+06 ± 20000 M⁻¹ s⁻¹.

B4: PaDa-I: AaeUPO1 mutant with L67F, I248V, F311L, V75I, V57A and evolved signal peptide, SEQ ID NO: 18; previously published parental (protein)
chain: MKYFPLFPTLVYAVGVVAFPDYASLAGLSQQELDAIIPTLEAREPGLPPGPLENSSAKLVNDEAHPWKPLRPGDIRGPCPGLNTLASHGYLPRNGVATPAQIINAVQEGFNFDNQAAIFATYAAHLVDGNLITDLLSIGRKTRLTGPDPPPPASVGGLNEHGTFEGDASMTRGDAFFGNNHDFNETLFEQLVDYSNRFGGGKYNLTVAGELRFKRIQDSIATNPNFSFVDFRFFTAYGETTFPANLFVDGRRDDGQLDMDAARSFFQFSRMPDDFFRAPSPRSGTGVEVVVQAHPMQPGRNVGKINSYTVDPTSSDFSTPCLMYEKFVNITVKSLYPNPTVQLRKALNTNLDFLFQGVAAGCTQVFPYGRD
B4: the “Optimum pH for naphthalene” value in [4] worked out at 6.0. Further, the “Optimum pH for ABTS” value in data set [5] was 4.0. In addition, the “Optimum pH for DMP” value in data set [6] was 6.0. Besides, in data set [7] (setting [12]), the “regioselectivity, 1-naphthol” value is 92% and the “regioselectivity, 2-naphthol” value was 8%. In addition, the “time at which formation of the epoxide intermediary reached its maximum” value in data set [7] (270 minute reaction at pH 7.0) is about 40 min. Besides, the “production of 1-naphthol” value in [7] (270 minutes at pH 7.0 without stopping the reaction) was determined as 0.14 mM. Moreover, the “total turnover numbers (TTN), 1-naphthol” value in [7] (calculated using the production value of 1-naphthol after 270 minutes) is 20,000 μmoles of product/μmoles of en. The “regioselectivity against 1-naphthol” value in data set [7] (long reaction times, 270 minutes at pH 7.0 without stopping the reaction) is recorded as 97%. The pI in [8] came to 5.5. The “Thermal stability, T50” value in data set [9] was determined as 57.6 °C.

As usually defined, the Km is the concentration of substrate that gives half-maximal velocity. By kcat is commonly meant the number of substrate molecules converted per active site and unit of time at saturation. In general, kcat/Km refers to the turnover number divided by the Michaelis constant.
